These results are taken from patent publication US20170087188A1, “WNT INDUCED MOTILITY AND ENHANCED ENGRAFTMENT OF CELLS” (OTTAWA HOSPITAL RESEARCH INSTITUTE, priority 2014, published 2017).

The target of one assay is Fzd7-YFP (CMV-Fzd7-EYFP). Nature of the assay: cell-based or functional assay.
Assay [1] has as its target Fzd7 (endogenous, mouse myogenic cells) (mouse) (UniProt Q61090). The experiment in a line: cell-based or functional assay.

The substance Wnt7a (R&D Systems) (ligand) gave a cell polarization of Fzd7-YFP expressing C2C12 cells in the assay with Fzd7-YFP (CMV-Fzd7-EYFP) of 167 % increase. In addition, in assay [1], the abundance of triangular polarized C2C12 cells amounted to 111 % increase, the directional persistence of satellite cells on single myofibers (time lapse imaging) was 36 % higher, the mean velocity of satellite cells on single myofibers (time lapse imaging) came out at 31 % increase and the migration of C2C12 cells in scratch assay was determined as 443 % increase. This substance came in with a migration of satellite cell derived mouse primary myoblasts in scratch assay in assay [1] of 136 % increase.
